The target of the test is T1, human LILRB1 (human, UniProt Q8NHL6 24-458, limits assumed).
T1 construct: also called hLILRB1
Put plainly: Octet off-rate ranking. (In general: BLI is a label-free optical method that tracks binding on a fibre tip over time.)
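Also: antibody dissociation rate constants against cynomolgus LILRB2 plus human LILRB1, LILRB2, LILRA1 and LILRA2, measured on an Octet instrument to rank binding.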

T1 sequence (Q8NHL6 24-458 limits assumed): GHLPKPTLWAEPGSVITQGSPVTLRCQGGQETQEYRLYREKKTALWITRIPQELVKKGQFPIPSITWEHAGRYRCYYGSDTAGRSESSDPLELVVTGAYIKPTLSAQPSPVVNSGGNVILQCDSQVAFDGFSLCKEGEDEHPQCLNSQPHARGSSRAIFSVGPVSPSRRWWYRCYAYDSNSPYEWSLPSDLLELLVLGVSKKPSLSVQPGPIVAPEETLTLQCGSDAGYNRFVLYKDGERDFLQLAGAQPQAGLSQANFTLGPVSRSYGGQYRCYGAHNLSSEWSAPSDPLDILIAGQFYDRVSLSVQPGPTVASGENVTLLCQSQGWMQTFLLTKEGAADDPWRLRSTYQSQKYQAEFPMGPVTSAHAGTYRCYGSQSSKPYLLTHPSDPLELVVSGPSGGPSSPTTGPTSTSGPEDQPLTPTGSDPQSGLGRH
From the text: Binding affinity of anti-LILRB1 and anti-LILRB2 antibodies against human LILRB1, LILRB2, LILRA1, LILRA2 and cynomolgus LILRB2 was ranked by measuring dissociation rate constant (Kdis) using the Octet system.

B1: LK-RB1-44 (antibody, human IgG4 S228P, kappa, V domains shown)
VH: QVQLQQSGTELAKPGASVKLSCKASGYTFTNYWMHWIKQRPGQGLEWIGYVHPTSDYTKYNQKFKDKATLTADKSSSTAYMQLNSLTYEDSAVYYCTRSSLYDTNYVFDSWGQGTTLTVSS
VL: DILLTQSPAILSVSPGERVSFSCRASQSIGRSIHWFQQRTNGSPSLLIKYASESISGIPSRFSGGGSGTDFTLSISNVESEDIADYYCQQSNNWPFTFGSGTKLEIKR
In the case of B1, the koff was determined as 0.000559 s⁻¹.

B2: LK-RB1-45 (antibody, human IgG4 S228P, kappa, V domains shown)
VH: QVQLQQSGTELARPGASVKLSCKASGYTFTNFWMHWIKQRPGQGLEWIGYVNPTSDYTKYNQKFKDKATLTADKSSSTAYMQLNSLTYEDSAVYYCTRSSLYDTNYVFDSWGQGTTLTVSS
VL: DILLTQSPAILSVSPGERVSFSCRASQSIGRSIHWYQQRTNGSPRLLIKYASESISGIPSRFSGGGSGTDFTLSISNVESEDIADYYCQQSNNWPFTFGSGTKLEIKR
Molecule B2 returned a koff of 0.000611 s⁻¹.

B3: LK-RB1-25 (antibody, human IgG4 S228P, kappa, V domains shown)
VH: QIQLVQSGPELKKPGETVKISCKASGYTFTSYGMNWMKQAPGEGLKWMGWINTYSGVPTYADDFKGRFAFSLETSATTVYLQINNLKNEDKATYFCARRGRDSVVGHFDVWGTGTTVTVSS
VL: DIVMTQSHKFMSTSVGDRVSITCKASQDVNTAVAWYQQKPGQSPKLLIYWASTRHTGVPDRFTGSGSGTDFTLTISSVQAEDLALYYCQQHYTIPFTFGSGTKLEIKR
Turning to B3, the koff stood at 9.03e-05 s⁻¹.

B4: LK-RB1-42 (antibody, human IgG4 S228P, kappa, V domains shown)
VH: QVQLQQPGAELVKPGTSVKLSCKASGYSFISYWVYWVKQRPGQGLEWIGMIHPNSGSTNFNEKFRYKATLTVDKSSSTAYIQLSSLTSEDSAVYYCGRSDDGYPYHAMDSWGQGTSVTVSS
VL: DIVMTQSQKFMSTSVGDRVSVTCKASQNVGTNVAWYQQKPGQSPKALIYSASYRFSGVPDRFTGSGSGTDFTLTIGNVQSEDLAEYFCHQYKNYPLTFGGGTKLEIKR
Consider B4, for which the koff amounted to 0.000139 s⁻¹. This koff is about 1.5-fold higher than that of the molecule before.

B5: LK-RB1-26 (antibody, human IgG4 S228P, kappa, V domains shown)
VH: QVQLKESGPGLVAPSQSLSITCTVSGFSLTSYGVSWVRQPPGKGLEWLGIIWGDGSTNYHSALISRLSISKDNSKSQVFLKLNSLQTDDTATYYCAKPNWDYYAMDYWGQGTSVTVSS
VL: DIQMTQTTSSLSASLGDRVTISCRASQDISNFLNWYQQKPDGTFKLLISYTSTLHSGVPSRFSGSGSGTDYSLTISNLEQEDVATYFCQQGNTLPLTFGAGTKLALKR
For the molecule B5, the koff is 0.000155 s⁻¹.

B6: LK-RB1-30 (antibody, human IgG4 S228P, kappa, V domains shown)
VH: QVQLKESGPGLVAPSQSLSITCTVSGFSLTSYGVSWIRQPPGKGLEWLGVIWGDGNTNYHSALISRLSISKDNSKSQVFLKLNSLQTDDTATYYCAKPSWDYYAMDYWGQGTSVTVSS
VL: VIQMTQTTSSLSASLGDRVTISCRASQDISNYVNWYQQRPDGTVKLLISYTSRLHSGVPSRFSGSGSGTDYSLTITNLEQEDIATYFCQQGITLPCTFGGGTKLEINR
The molecule B6 showed a koff of 6.05e-05 s⁻¹. This koff lies about 2.6-fold lower than the previous one.

B7: LK-RB1-29 (antibody, human IgG4 S228P, kappa, V domains shown)
VH: QVQLKESGPGLVAPSQNLAITCTVSGFSLTNSGVSWVRQSPGKGLEWLGIIWGDGNTNYHSALISRLSISKDNSKSQVFLKLNSLQTDDTGTYYCAKPNWDYYALDYWGQGTSVTVSS
VL: DIQMTQTASSLFASLGDRVTISCRASQDISNYLNWYQQKPDGSIKLLISYTSRLHSGVPSRFSGSGSGTDYSLSISNLEQEDIATYFCQQGISLPCTFGGGTKLEVNR
Molecule B7 gave a koff of 8.11e-05 s⁻¹.

B8: LK-RB1-46 (antibody, human IgG4 S228P, kappa, V domains shown)
VH: EVQLQQSGPELVKPGASVKISCKTSGYTFTDYYMNWVKQSHGKSLEWIGDIYPINGDISYNQKFKGKATLTVDKSSSTVYMEIRSLTYEDSAVYYCARLAQTTSGGFDYWGQGTTLTVSS
VL: DIVLTQSPTSLAVSLGQRAIISCKASQSVSFAGTSLMHWYQQKPGQQPKLLIYRASNLKAGVPTRFSGSGSRTDFTLNIHPVEEDDAATYYCQQSREYPMYTFGGGTKLEIKR
As for B8, the koff came out at 0.000739 s⁻¹.

B9: LK-RB1-34 (antibody, human IgG4 S228P, kappa, V domains shown)
VH: QVQLQQSGAELVKPGASVKLSCKASGYTFTEYTIHWVKQRSGQGLEWIGWFYPGSDSIKYNEKFKDKATLTADKSSSTVYMELSRLTSEDSAVYFCSRHEGPYFTSQYYFDYWGQGTTLTVSS
VL: DILLTQSPAILSVSPGERVSFSCRASRYIGTSIHWYQQRTNGSPRLLIKYASESISGIPSRFSGSGSGTDFTLSINSVESEDIADYYCQQSNTWPLTFGAGTKLELKR
Molecule B9 yielded a koff of 0.000222 s⁻¹. Against the preceding molecule, the koff is about 3.3-fold lower.

B10: LK-RB1-37 (antibody, human IgG4 S228P, kappa, V domains shown)
VH: QVQLQQPGAELVKPGASVKLSCKASGYTFTSYWMHWVKQRPGRGPEWIGRIDPNSGYARYNEKFKNKATLTADKPSSTADMHLSSLTSEDSAVYYCTRSFITTAEWFFDVWGTGTTVTVSS
VL: DILLTQSPAILSVSPGERVSFSCRASQSIGTSIHWYQQRRNGSPRLLIKYTSESISGIPSRFSGSGSGTDFTLSINSVESEDIADYYCQQSNSWPHTFGGGTKLELKR
The molecule B10 came in with a koff of 3.91e-05 s⁻¹.

B11: LK-RB1-32 (antibody, human IgG4 S228P, kappa, V domains shown)
VH: QVQLQQSGAELAKPGASVKLSCTASGYTFTTYLMHWVKQRPAQGLEWIGYINPSNDFTKYNQKFKDKATLTADTSSSTAYMQLNSLTFEDSAVYYCARNSDYDPSYWGQGTTLTVSS
VL: DIQMTQSPASLSVSVGETVTITCRASENIYSSLAWYQQKQGKSPQLLVYAATNLADGVPSRFSGSGSGTQYSLKINSLQSEDFGNYYCQHFWGTWAFGGGTKLEIKR
As for B11, the koff was 3.66e-05 s⁻¹.

B12: LK-RB1-35 (antibody, human IgG4 S228P, kappa, V domains shown)
VH: DVQLQESGPGLEKPSQSLSLTCSVTGYSITRGYQWNWIRQFPGNKLEWMGYISYDGSNNYNPSLKNRISITRDASKNQFFLKLNSVTTEDTATYYCARRSYNSIDYWGQGTTLTVSS
VL: DIVLTQSPATLSVTPGDSVSLSCRASQSISSNLHWYQQKSHESPRLLIKYASQSISGIPSRFSGSGSGTDFTLSINSVETEDFGMYFCQQSNSWPLTFGAGTKLELKR
For the molecule B12, the off-rate constant (koff) was determined as 0.00116 s⁻¹.

B13: LK-RB1-38 (antibody, human IgG4 S228P, kappa, V domains shown)
VH: DVQLQESGPGLVQPSQSLSLTCSVTGYSITSGYQWNWIRQLPGNKLEWMAYISFDGSNNYNPSLKNRISITRDTSKNQFFLKLKSVTTEDTATYYCARRDYDGVAYWGQGTLVTVSA
VL: EIVLTQSPATLSVTPGDRVSLSCRASQNISNYLHWYQQKSHGSPRLIIKYASQSISGIPSRFSGSGSGTDFTLSINSVETEDFGMYFCQQSNSWPLTFGAGTKLELKR
Molecule B13 displayed a koff of 0.000532 s⁻¹.

B14: LK-RB1-36 (antibody, human IgG4 S228P, kappa, V domains shown)
VH: DVQLQESGPGLEKPSQSLSLTCSVTGYSITRGYQWNWIRQFPGNKLEWMGYISYDGSNNYNPSLKNRISIIRDTSKNQFFLKLNSVTTEDTATYYCARRSYNSIDYWGQGTTLTVSS
VL: DIVLTQSPATLSVTPGDSVSLSCRASQSISNNLHWYQQKSHESPRLLIKYASQSISGIPSRFSGSGSGTDFTLSINSVETEDFGMYFCQQSNSWPLTFGAGTKLELKR
In turn, B14 registered an off-rate (koff) of 0.00121 s⁻¹.

B15: LK-RB1-27 (antibody, human IgG4 S228P, kappa, V domains shown)
VH: QVQLQQSGPELVKPGASVRMSCKASGYTFTSHYIHWMKQRPGQGLEWIGWIYPGDGHTKYHEKFKDRATLTADTSSITAYMRLSSLTSEDSAIYYCVYYSDSWFPYWGQGTLVTVSA
VL: DIQMTQSPASLSVSVGETVTITCRASENIYSNLAWYQQKQGKSPHLLVYAATNLADGVPSRFSGSGSGTQYSLKINSLQSEDFGNYYCQHFWGSPWTFGGGTKLEIKR
B15 came in with a koff of 0.000112 s⁻¹. Compared with the last molecule, the koff is about 11-fold lower.

B16: 12D12 (antibody, human IgG4 S228P, kappa, V domains shown)
VH: QVQLQQPGAELVKPGASVRMSCKASGYTFTSYWVHWVKQRPGQGLEWIGVIDPSDSYTSYNQNFKGKATLTVDTSSKTAYIHLSSLTSEDSAVYFCARGERYDGDYFAMDYWGQGTSVTVSS
VL: DIVMTQSPASLSVSVGETVTITCRASENIYSNLAWYQQKQGKSPQLLVYAATNLADGVPSRFSGSRSGTQYSLKINSLQSEDFGTYYCQHFWNTPRTFGGGTKLEIKR
B16 registered a dissociation rate constant (koff) of 0.000338 s⁻¹.

B17: LK-RB1-43 (antibody, human IgG4 S228P, kappa, V domains shown)
VH: EFQLQQSGPELMKPGASVKISCKASGYSFTDYNMNWVKQSNGKSLEWIGIIDPNYGTTTYNQKFKGRATLTVDQSSNTAYMQLNSLTSEDSAVYYCAREGRYSWFAYWGQGTLVTVSA
VL: DIQMTQSPGALSVSVGETVTITCRASENINSNLAWYQQKQGKSPQLLVYAATNLADGVPSRFSGSGSGTQYSLKINSLQSEDFGSYHCQHFWGTPFTFGSGTKLEIKR
B17 gave a koff of 0.000364 s⁻¹.

B18: LK-RB1-28 (antibody, human IgG4 S228P, kappa, V domains shown)
VH: QVQLQQSGPELVKPGTSVKMSCKASGYTFTSHYIHWMKQRPGQGLDWIGWIYPGDGHTKYHEKFKGKATLTADTSSITAYMQLSLLTSEDSAVYYCVYYSDSWFPYWGQGTLVTVSA
VL: DIQMTQSPASLSVSVGETVTITCRASENIYSNLAWYQQKQGKSPQLLVYAATNLADGVPSRFSGSGSGTQYSLKINSLQSEDFGNYFCQHFWGSPWTFGGGTKLEIKR
B18 displayed a koff of 6.28e-05 s⁻¹.

B19: LK-RB1-55 (antibody, human IgG4 S228P, kappa, V domains shown)
VH: EVKLVESGGGLVQPGGSLKLSCAASGFTFSDYYMYWVRQTPEKRLEWVAYISNGGDITFYPDTVKGRFTISRDNARSTLYLQMSRLKSEDTAIYYCASATTEVGAMDHWGQGTSVTVSS
VL: DIVMTQSQKFMSTTVGDRVSITCKASQNVGTAVAWYQQKPGKSPKLLIYAASNRYTGVPDRFTGSGSGTDFTLTISNMQSEDLADYFCQQYSSYRTFGGGTNLEIKR
Molecule B19 showed a koff of less than 1e-07 s⁻¹.

B20: LK-RB1-57 (antibody, human IgG4 S228P, kappa, V domains shown)
VH: EVKLVESGGGLVQPGGSLKLSCAASGFTFSDYYMYWVRQTPEKRLEWVAYISNGGDITFYPDTVKGRFTISRDNARSTLYLQTSRLKSEDTAIYYCASATTEVGAMDHWGQGTSVTVSS
VL: DIVMTQSQKFMSTTVGDRVSITCKASQNVGTAVAWYQQKPGKSPKLLIYAASNRYTGVPDRFTGSGSGTDFTLTISNVQSEDLADYFCQQYSSYRTFGGGTSLEIKR
B20 gave a koff of less than 1e-07 s⁻¹.

B21: LK-RB1-48 (antibody, human IgG4 S228P, kappa, V domains shown)
VH: EVKLVESGGGLVQPGGSLKLSCAASGFTFSDYYMYWVRQTPEKRLEWVAYISNGGGISFYPDTVKGRFTISRDNAKNTLYLQMSRLKSEDTAIYYCASATKEVGAMDYWGQGTSVTVSS
VL: DIVMTQSQKFLSTTVGDRVSITCKASQNVGTAVAWYQQKPGQSPKILIYSASNRYTGVPDRFTGSGSGTDFTLTISNMQSEDLADYFCQQYSSYRTFGGGTKLEIKR
Consider B21, for which the koff is 8.47e-06 s⁻¹.

The term koff denotes the rate constant with which the complex falls apart.

For the origin of these results see patent US20260234247A1 (published 2026).
